Experimental findings from IntAct's records for PubMed 25910212 are described below.

The chains are these.
B1: EF-hand domain-containing protein 1 (Homo sapiens), Q5JVL4 (parent)
chain: MVSNPVHGLPFLPGTSFKDSTKTAFHRSQTLSYRNGYAIVRRPTVGIGGDRLQFNQLSQAELDELASKAPVLTYGQPKQAPPADFIPAHVAFDKKVLKFDAYFQEDVPMSTEEQYRIRQVNIYYYLEDDSMSVIEPVVENSGILQGKLIKRQRLAKNDRGDHYHWKDLNRGINITIYGKTFRVVDCDQFTQVFLESQGIELNPPEKMALDPYTELRKQPLRKYVTPSDFDQLKQFLTFDKQVLRFYAIWDDTDSMYGECRTYIIHYYLMDDTVEIREVHERNDGRDPFPLLMNRQRVPKVLVENAKNFPQCVLEISDQEVLEWYTAKDFIVGKSLTILGRTFFIYDCDPFTRRYYKEKFGITDLPRIDVSKREPPPVKQELPPYNGFGLVEDSAQNCFALIPKAPKKDVIKMLVNDNKVLRYLAVLESPIPEDKDRRFVFSYFLATDMISIFEPPVRNSGIIGGKYLGRTKVVKPYSTVDNPVYYGPSDFFIGAVIEVFGHRFIILDTDEYVLKYMESNAAQYSPEALASIQNHVRKREAPAPEAESKQTEKDPGVQELEALIDTIQKQLKDHSCKDNIREAFQIYDKEASGYVDRDMFFKICESLNVPVDDSLVKELIRMCSHGEGKINYYNFVRAFSN
partner: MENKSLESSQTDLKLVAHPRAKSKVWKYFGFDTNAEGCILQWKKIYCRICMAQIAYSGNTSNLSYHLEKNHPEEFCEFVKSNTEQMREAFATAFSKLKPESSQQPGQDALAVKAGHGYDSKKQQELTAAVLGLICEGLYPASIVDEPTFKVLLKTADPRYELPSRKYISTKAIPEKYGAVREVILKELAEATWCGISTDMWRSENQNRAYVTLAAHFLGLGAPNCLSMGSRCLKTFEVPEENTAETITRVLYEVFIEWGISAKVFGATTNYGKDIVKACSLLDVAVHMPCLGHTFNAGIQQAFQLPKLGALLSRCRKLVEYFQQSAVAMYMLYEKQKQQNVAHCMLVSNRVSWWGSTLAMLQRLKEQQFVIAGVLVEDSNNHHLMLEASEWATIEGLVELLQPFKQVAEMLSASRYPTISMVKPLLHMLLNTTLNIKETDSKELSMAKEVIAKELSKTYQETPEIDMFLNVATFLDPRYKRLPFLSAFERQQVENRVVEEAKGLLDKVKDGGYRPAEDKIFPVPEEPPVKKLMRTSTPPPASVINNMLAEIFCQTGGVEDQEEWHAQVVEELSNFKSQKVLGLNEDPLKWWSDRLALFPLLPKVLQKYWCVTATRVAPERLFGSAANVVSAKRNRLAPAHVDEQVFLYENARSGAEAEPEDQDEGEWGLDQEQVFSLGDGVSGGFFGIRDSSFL
B2: THAP domain-containing protein 1 (Homo sapiens), Q9NVV9 (parent)
chain: MVQSCSAYGCKNRYDKDKPVSFHKFPLTRPSLCKEWEAAVRRKNFKPTKYSSICSEHFTPDCFKRECNNKLLKENAVPTIFLCTEPHDKKEDLLEPQEQLPPPPLPPPVSQVDAAIGLLMPPLQTPVNLSVFCDHNYTVEDTMHQRKRIHQLEQQVEKLRKKLKTAQQRCRRQERQLEKLKEVVHFQKEKDDVSERGYVILPNDYFEIVEVPA
B3: EF-hand domain-containing protein 1 (Homo sapiens), Q5JVL4 (parent)
chain: B1 chain
partner: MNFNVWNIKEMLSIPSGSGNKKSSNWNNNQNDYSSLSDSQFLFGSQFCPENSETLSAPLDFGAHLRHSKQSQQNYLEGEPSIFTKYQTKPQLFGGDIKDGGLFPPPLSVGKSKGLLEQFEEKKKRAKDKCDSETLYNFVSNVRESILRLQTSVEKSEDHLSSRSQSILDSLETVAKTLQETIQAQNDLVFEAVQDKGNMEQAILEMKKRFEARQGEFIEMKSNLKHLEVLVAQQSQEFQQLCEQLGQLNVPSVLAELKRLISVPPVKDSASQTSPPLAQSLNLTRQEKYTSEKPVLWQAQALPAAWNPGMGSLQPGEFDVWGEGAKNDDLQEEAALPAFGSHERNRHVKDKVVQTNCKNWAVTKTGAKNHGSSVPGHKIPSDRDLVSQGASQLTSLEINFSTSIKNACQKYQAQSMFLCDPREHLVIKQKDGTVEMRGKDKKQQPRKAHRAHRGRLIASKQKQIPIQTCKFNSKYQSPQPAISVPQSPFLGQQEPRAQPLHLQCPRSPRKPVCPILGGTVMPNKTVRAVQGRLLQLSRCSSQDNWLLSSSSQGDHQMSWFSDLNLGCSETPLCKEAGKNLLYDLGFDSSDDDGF
B4: CD151 antigen (Homo sapiens), P48509 (parent)
chain: MGEFNEKKTTCGTVCLKYLLFTYNCCFWLAGLAVMAVGIWTLALKSDYISLLASGTYLATAYILVVAGTVVMVTGVLGCCATFKERRNLLRLYFILLLIIFLLEIIAGILAYAYYQQLNTELKENLKDTMTKRYHQPGHEAVTSAVDQLQQEFHCCGSNNSQDWRDSEWIRSQEAGGRVVPDSCCKTVVALCGQRDHASNIYKVEGGCITKLETFIQEHLRVIGAVGIGIACVQVFGMIFTCCLYRSLKLEHY
B5: Emerin (Homo sapiens), P50402 (parent)
chain: MDNYADLSDTELTTLLRRYNIPHGPVVGSTRRLYEKKIFEYETQRRRLSPPSSSAASSYSFSDLNSTRGDADMYDLPKKEDALLYQSKGYNDDYYEESYFTTRTYGEPESAGPSRAVRQSVTSFPDADAFHHQVHDDDLLSSSEEECKDRERPMYGRDSAYQSITHYRPVSASRSSLDLSYYPTSSSTSFMSSSSSSSSWLTRRAIRPENRAPGAGLGQDRQVPLWGQLLLFLVFVIVLFFIYHFMQAEEGNPF
partner: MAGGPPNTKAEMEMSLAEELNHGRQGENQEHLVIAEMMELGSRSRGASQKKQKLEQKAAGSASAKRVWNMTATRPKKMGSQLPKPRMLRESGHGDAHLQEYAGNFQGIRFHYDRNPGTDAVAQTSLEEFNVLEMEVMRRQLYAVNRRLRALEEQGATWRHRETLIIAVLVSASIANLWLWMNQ

In one experiment the parent is B1. Conditions: with zbed1_human ZBED1, O96006.
As for R221H, the “effect of a mutation on the interaction” value is given as “disrupting interaction strength”.

For the variant A394S, the “effect of a mutation on the interaction” value is reported as “disrupting interaction strength”.

In a further experiment the parent is B2. Conditions: with RALYL.
Take MVQSCSAYGCKNRYDKDKPVSFHKFPLTRPSLCKEWEAAVRRKNFKPTKYSSICSEHFTPDCFKRECNNKLLKENAVPTILLCTEPHDKKEDLLEPQEQLPPPPLPPPVSQVDAAIGLLMPPLQTPVNLSVFCDHNYTVEDTMHQRKRIHQLEQQVEKLRKKLKTAQQRCRRQERQLEKLKEVVHFQKEKDDVSERGYVILPNDYFEIVEVPA [F81L]: the “effect of a mutation on the interaction” value is recorded as “with no effect”.

A further experiment covers variants of B2. As to conditions: with nup62_human NUP62, P37198.
Sequence of nup62_human NUP62, P37198 (P37198 whole entry): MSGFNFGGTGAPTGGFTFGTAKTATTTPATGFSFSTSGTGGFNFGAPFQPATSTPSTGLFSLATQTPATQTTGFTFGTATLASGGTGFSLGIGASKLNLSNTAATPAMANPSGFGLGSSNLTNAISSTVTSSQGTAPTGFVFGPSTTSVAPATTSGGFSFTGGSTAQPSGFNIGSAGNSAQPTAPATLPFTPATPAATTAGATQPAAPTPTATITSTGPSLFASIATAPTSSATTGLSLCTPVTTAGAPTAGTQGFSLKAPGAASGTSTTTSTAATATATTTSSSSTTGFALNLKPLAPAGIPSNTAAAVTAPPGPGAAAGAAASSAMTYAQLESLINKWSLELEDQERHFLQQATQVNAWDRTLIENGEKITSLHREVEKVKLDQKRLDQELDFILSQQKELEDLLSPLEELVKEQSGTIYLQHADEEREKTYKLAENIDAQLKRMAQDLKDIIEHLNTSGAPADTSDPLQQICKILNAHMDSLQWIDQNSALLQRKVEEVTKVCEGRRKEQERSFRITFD
For MVQSCSAYGCKNRYDKDKPVSFHKFPLTRPSLCKEWEAAVRRKNFKPTKYSSICSEHFTPDCFKRECNNKLLKENAVPTILLCTEPHDKKEDLLEPQEQLPPPPLPPPVSQVDAAIGLLMPPLQTPVNLSVFCDHNYTVEDTMHQRKRIHQLEQQVEKLRKKLKTAQQRCRRQERQLEKLKEVVHFQKEKDDVSERGYVILPNDYFEIVEVPA [F81L], the “effect of a mutation on the interaction” value is “with no effect”.

Another experiment covers variants of B3. Conditions: with iho1_human IHO1, Q8IYA8.
Turning to R221H, the “effect of a mutation on the interaction” value was “disrupting interaction strength”.

Consider M448T, for which the “effect of a mutation on the interaction” value is “with no effect”.

Turning to R159W, the “effect of a mutation on the interaction” value was “with no effect”.

In the case of P77T, the “effect of a mutation on the interaction” value was “disrupting interaction strength”.

Consider T508R, for which the “effect of a mutation on the interaction” value is on record as “disrupting interaction strength”.

Consider A394S, for which the “effect of a mutation on the interaction” value is “disrupting interaction strength”.

In the next experiment the parent is B4. Conditions: with astrc_human GRAMD1C.
For the variant MGEFNEKKTTCGTVCLKYLLFTYNCCFWLAGLAVMAVGIWTLALKSDYISLLASGTYLATAYILVVAGTVVMVTGVLGCCATFKERRNLLRLYFILLLIIFLLEIIAGILAYAYYQQLNTELKENLKDTMTKRYHQPGHEAVTSAVDQLQQEFHCCGSNNSQDWRDSEWICSQEAGGRVVPDSCCKTVVALCGQRDHASNIYKVEGGCITKLETFIQEHLRVIGAVGIGIACVQVFGMIFTCCLYRSLKLEHY [R171C], the “effect of a mutation on the interaction” value is recorded as “disrupting interaction strength”.

As to MGEFNEKKTTCGTVCLKYLLFTYNCCFWLAGLAVMAVGIWTLALKSDYISLLASGTYLATAYILVVAGTVVMVTGVLGCCATFKERRNLLRLYFILLLIIFLLEIIAGILAYAYYQQLNTELKENLKDTMTKRYHQPGHEAVTSAVDQLQQEFHCCGSNNSQDWRDSEWIRSQEAGGHVVPDSCCKTVVALCGQRDHASNIYKVEGGCITKLETFIQEHLRVIGAVGIGIACVQVFGMIFTCCLYRSLKLEHY [R178H], the “effect of a mutation on the interaction” value is recorded as “with no effect”.

The next experiment covers variants of B5. Conditions: with fate1_human FATE1, Q969F0.
As to MDNYADLSDTELTTLLRRYNIPHGPVVGSTRRLYEKKIFEYETQRRRLSPPSSSAASSYSFSDLNSTRGDAVMYDLPKKEDALLYQSKGYNDDYYEESYFTTRTYGEPESAGPSRAVRQSVTSFPDADAFHHQVHDDDLLSSSEEECKDRERPMYGRDSAYQSITHYRPVSASRSSLDLSYYPTSSSTSFMSSSSSSSSWLTRRAIRPENRAPGAGLGQDRQVPLWGQLLLFLVFVIVLFFIYHFMQAEEGNPF [D72V], the “effect of a mutation on the interaction” value was “with no effect”.

As to MDNYADLSDTELTTLLRRYNIPHGPVVGSTRRLYEKKIFEYETQRRRLSPPSSFAASSYSFSDLNSTRGDADMYDLPKKEDALLYQSKGYNDDYYEESYFTTRTYGEPESAGPSRAVRQSVTSFPDADAFHHQVHDDDLLSSSEEECKDRERPMYGRDSAYQSITHYRPVSASRSSLDLSYYPTSSSTSFMSSSSSSSSWLTRRAIRPENRAPGAGLGQDRQVPLWGQLLLFLVFVIVLFFIYHFMQAEEGNPF [S54F], the “effect of a mutation on the interaction” value is given as “with no effect”.

For the variant MDNYADLSDTELTTLLRRYNIPHGPVVGSTRRLYEKKIFEYETQRRRLSPPSSSAASSYSFSDLNSTRGDADMYDLPKKEDALLYQSKGYNDDYYEESYFTTRTYGEPESAGPSRAVRQSVTSFPDADAFHHQVHDDDLLSSSEEECKDRERPMYGRDSAYQSITHYRPVSASRSSLDLSYYHTSSSTSFMSSSSSSSSWLTRRAIRPENRAPGAGLGQDRQVPLWGQLLLFLVFVIVLFFIYHFMQAEEGNPF [P183H], the “effect of a mutation on the interaction” value is listed as “with no effect”.

For the variant MDNYADLSDTELTTLLRRYNIPHGPVVGSTRRLYEKKIFEYETQRRRLSPPSSSAASSYSFSDLNSTRGDADMYDLPKKEDALLYQSKGYNDDYYEESYFTTRTYGEPESAGPSRAVRQSVTSFPDADAFHHQVHDDDLLSSSEEECKDRERPMYGRDSAYQSITHYRPVSASRSSLDLSYYTTSSSTSFMSSSSSSSSWLTRRAIRPENRAPGAGLGQDRQVPLWGQLLLFLVFVIVLFFIYHFMQAEEGNPF [P183T], the “effect of a mutation on the interaction” value is “with no effect”.
